Here are results for three molecules from doi:10.1101/2021.12.04.471219 (bioRxiv, 2021).

T1: LNX2 PDZ2 domain (residues 334-426) (human, UniProt Q8N448 334-426)
T1 sequence: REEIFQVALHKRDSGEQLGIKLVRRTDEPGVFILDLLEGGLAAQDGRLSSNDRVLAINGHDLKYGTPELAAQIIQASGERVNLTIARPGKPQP

T2: MPP5 PDZ domain (residues 238-336) (human, UniProt Q8N3R9 238-336)
T2 sequence: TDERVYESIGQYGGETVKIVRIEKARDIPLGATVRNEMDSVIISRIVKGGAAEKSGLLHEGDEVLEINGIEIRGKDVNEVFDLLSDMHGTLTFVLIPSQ

B1: ZO-1 PDZ2 domain (residues 184-264) (domain or fragment)
chain: PTKVTLVKSRKNEEYGLRLASHIFVKEISQDSLAARDGNIQEGDVVLKINGTVTENMSLTDAKTLIERSKGKLKMVVQRDE
B2: C-terminal SARS-CoV-2-E PBM peptide (12-mer, original strain) (peptide)
peptide: NLNSSRVPDLLV

Series [1] concerns the target MLLT4 PDZ domain (residues 961-1056) (human) (UniProt P55196). Kind of series: MST.
Series [2] deals with the molecule itself. Kind of series: AUC.
Series [3] deals with B1. Kind of series: MST.
Series [4] has as its target T1, LNX2 PDZ2 domain (residues 334-426). Kind of series: MST.
The target in series [5] is PARD3 PDZ3 domain (residues 582-685) (human, UniProt Q8TEW0 582-685). Kind of series: MST.
Sequence of PARD3 PDZ3 domain (residues 582-685) (Q8TEW0 582-685): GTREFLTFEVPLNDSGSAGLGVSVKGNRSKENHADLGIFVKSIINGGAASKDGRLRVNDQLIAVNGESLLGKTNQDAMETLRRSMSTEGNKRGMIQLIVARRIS
Series [6] addresses T2, MPP5 PDZ domain (residues 238-336). The series is described as follows: MST.

Broadly, the Kd is the free concentration of one partner at which half of the binding sites on the other are occupied at equilibrium, for simple one-to-one binding. As usually defined, the stoichiometry N is a count of units in the complex or per binding partner.

Where “and” joins values, the source holds several entries; their conditions need not be identical. Identical values can stand only once.

“C-terminal SARS-CoV-2-E PBM peptide (12-mer, original strain)” showed a Kd in series [1] of 569 µM.
In the case of B1, the “stoichiometry N” value in series [2] was 2 and ~4.
Turning to B2, the equilibrium dissociation constant (Kd) in series [3] was 15 µM; in series [4], 289 µM; in series [5] it was 341 µM; in series [6] it was 30 µM.
